In assay [1] the test system is Dictyostelium discoideum amoeba cells. The assay can be described thus: Permeation of FITC-labelled peptides into cultured Dictyostelium cells (fluorescence microscopy). As to conditions: FITC-labelled peptide, 20 micromolar, 1 hour. Format: cell-based. On the procedure: Peptides were labelled with Fluorescein isothiocyanate (FITC) using a FITC labeling kit as per instructions (Pierce, UK). When added to cell cultures the labeled peptides were visualized using a fluorescent microscope by exciting the FITC with a 488 nm spectral line, argon-ion laser (Excitation wavelength of 494 nm and an Emission wavelength of 518 nm).
AX2 wild type Dictyostelium cells were grown on SM agar plates seeded with Aerobacter aerogenes bacteria (also known as Klebsiella aerogenes) as a food source.
Cupid A ([…]) and Cupid B ([…]) were chemically synthesized labelled with FITC at the amino terminal. The peptides were added to cultured eukaryotic cells of Dictyostelium discoideum amoeba for varying amounts of time up to 2 hours. Cells were then washed and prepared for examination under a fluorescent microscope (FIG. 1). The time courses of permeation were compared to the class 3 CPP, the Antennapedia peptide, pANT which was also labelled with FITC in chemical synthesis (FIG. 2).

In assay [2] the test system is PTEN. The experiment in a line: Protein phosphorylation response to cyclic AMP in starving Dictyostelium cultures (antibody detection on SDS gels). Format: cell-based, Dictyostelium discoideum. As to conditions: pre-treated for 1 hour with 10 micromolar peptide. The source says: FIG. 10. In starving Dictyostelium cultures, several proteins undergo rapid phosphorylation/dephosphorylation events in response to an applied dose of cyclic AMP. The strength of this response is limited by PTEN enzyme activity. This response is visualised with antibody detection of these phosphoproteins on SDS gels prepared from extracted cultures at the time points indicated after the cAMP dose.
In starving Dictyostelium cultures, several proteins undergo rapid phosphorylation/dephosphorylation events in response to an applied dose of cyclic AMP. The strength of this initial phosphorylation response is limited by PTEN enzyme activity and is associated with changes in PIP2 and PIP3 inositol phospholipid levels.

The subject of assay [3] is PTEN. The experiment in a line: Streaming and aggregation of starved wild-type Dictyostelium cultures compared with the PTEN null mutant. Conditions: 10 micromolar, wild-type cells, visualised after 10 hours. Type of assay: cell-based, Dictyostelium discoideum. On the procedure: FIG. 8. Cupid can transport large molecule cargo into the cell. Starved Dictyostelium cultures were plated into petri dishes in starvation buffer and visualised after 10 hours. In untreated wild-type (WT) cultures (A), cells stream together into aggregation centres, co-ordinated by cell to cell signaling.
In Dictyostelium, a genetic mutant in which the PTEN gene is absent causes marked changes in phenotype.

The subject of assay [4] is PTEN. The assay can be described thus: Inositol phospholipid levels in starving Dictyostelium cells (solvent extraction, thin layer chromatography). Type of assay: cell-based, Dictyostelium discoideum. As to conditions: 10 micromolar, 1 hour, starving wild-type Dictyostelium. On the procedure: FIG. 9. The levels of the 4 inositol phospholipids (PI, PIP, PIP2 and PIP3) in wild-type Dictyostelium cells undergoing starvation were measured by solvent extraction of cell cultures and analysis using thin layer chromatography. The effect of Cupid B-PTEN peptide treatment (10 micromolar, 1 hour) was calculated as a percentage change in the basal (untreated) levels.
The PTEN protein has a phospholipase enzymatic activity that functions to remove phosphate groups from inositol-based lipids and as such is involved with maintaining the balance between varieties of inositol phospholipids present at the cell surface. In wild-type cells undergoing starvation the inositol phospholipids with 3 and 4 phosphate groups (PIP2 and PIP3) are kept low, largely due to the action of PTEN.
We determined the effect of Cupid B-PTEN peptide on the inositol phospholipid levels in Dictyostelium cultures. Cupid B-PTEN peptide treated cells (10 micromolar, 1 hour) alters the basal levels of inositol phospholipids in Dictyostelium cells.

B1: Cupid B-PTEN: Cupid B fused to a 167 amino acid region (C2 region, 186-352) of human PTEN, with 6x Histidine (protein)
chain: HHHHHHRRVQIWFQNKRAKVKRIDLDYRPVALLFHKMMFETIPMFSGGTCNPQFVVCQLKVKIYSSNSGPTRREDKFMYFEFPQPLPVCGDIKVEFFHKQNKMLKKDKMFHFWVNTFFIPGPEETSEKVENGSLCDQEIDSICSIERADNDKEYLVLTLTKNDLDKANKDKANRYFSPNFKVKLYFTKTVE
modifications: FITC label
notes: Cupid B fused to a 167 amino acid region (C2 region, 186-352) of human PTEN, with 6x Histidine
Regarding B1, the “cell permeation (fluorescence microscopy)” value in assay [1] was “cell permeable”. Also, the entries for the “initial phosphorylation response to cyclic AMP versus untreated cultures” value with PTEN [2] and with PTEN [2] (listed as Cupid-PTEN) were “much stronger initial phosphorylation response” and “much greater phosphorylation response”, respectively. Besides, the “streaming/aggregation behaviour of starved wild-type Dictyostelium” value is given as “exhibit the same distinctive behaviour as the PTEN-Null strain” in the assay on PTEN [3] and “cells failed to stream together or aggregate” in the assay with PTEN [3] (listed as Cupid-PTEN). Further, in the assay with PTEN [4], the “change of PIP2 level relative to untreated basal level” value is “+75%”. The “change of PIP3 level relative to untreated basal level” value in the assay with PTEN [4] is given as “+150%”.

(Values after patent publication US20160310607A1, “CELL TRANSPORT” (CUPID PEPTIDE COMPANY LIMITED, priority 2013, published 2016).)
